Patent publication US20110312897A1 (ROCKEFELLER UNIVERSITY, published 2011)
Where no end group is shown, it is not given here.

Target: T1, cleaved H3 tail peptide (H3 22-37), methylated at K27 (not fully specified; also: K27 methylated, degree not given here, biotinylated, site not given here)
T1 construct: Mimics the H3 tail after cleavage between A21 and T22; also called cleaved peptide (amino acid residues 22-37)
T1 peptide: TKAARK(Me)SAPATGGVKK
Assay: fluorescence anisotropy

B1: chromodomain of mouse CBX7 (other, UniProt Q8VDS3 1-70, looked up)
chain: MELSAIGEQVFAVESIRKKRVRKGKVEYLVKWKGWPPKYSTWEPEEHILDPRLVMAYEEKEERDRASGYR
notes: domain: chromodomain; also called Cbx7-CD protein; chromodomain of Pc (mouse CBX7)
fold decrease of binding against the non-cleaved peptide (residues 18-37): 3 fold
